Molecular target: T1, activated C1s (Homo sapiens, UniProt P09871)
T1 construct: purchased Complement Technology
T1 sequence (P09871 16-437 limits assumed): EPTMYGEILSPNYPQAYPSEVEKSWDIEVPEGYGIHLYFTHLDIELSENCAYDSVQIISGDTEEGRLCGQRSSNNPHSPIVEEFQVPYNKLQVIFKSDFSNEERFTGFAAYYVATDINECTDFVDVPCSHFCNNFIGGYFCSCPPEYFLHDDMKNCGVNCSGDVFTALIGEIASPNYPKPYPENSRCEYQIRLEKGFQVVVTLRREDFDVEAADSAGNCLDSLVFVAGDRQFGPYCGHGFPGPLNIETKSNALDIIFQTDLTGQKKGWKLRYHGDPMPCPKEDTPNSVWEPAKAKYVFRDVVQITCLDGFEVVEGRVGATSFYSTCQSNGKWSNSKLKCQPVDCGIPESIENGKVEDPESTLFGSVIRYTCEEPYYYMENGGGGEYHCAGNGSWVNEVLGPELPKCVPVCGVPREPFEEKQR
T1 sequence (P09871 438-688 limits assumed): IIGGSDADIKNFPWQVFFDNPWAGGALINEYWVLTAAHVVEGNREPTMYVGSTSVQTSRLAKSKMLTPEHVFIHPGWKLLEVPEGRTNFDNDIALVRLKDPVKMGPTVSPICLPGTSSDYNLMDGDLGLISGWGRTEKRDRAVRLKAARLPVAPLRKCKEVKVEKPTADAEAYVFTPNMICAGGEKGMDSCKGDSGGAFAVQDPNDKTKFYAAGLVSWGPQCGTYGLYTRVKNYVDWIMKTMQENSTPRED
Assay: Anti-interference experiment of fluorescence detection method for activated C1s
Assay type: biochemical
Conditions: for measured activated C1s enzymatic activity: n = 4
Method: • 1. Preparation of a buffer: 1) Binding Buffer: 0.1 M morpholinoethanesulfonic acid (MES, pH=5.0); • 2) Washing Buffer: TBS containing 0.05% Tween 20; • 3) Blocking Buffer: containing 0.05 M Tris, 1.0% BSA, and 0.05% Tween 20; • 4) Desired Buffer: Tris buffer containing 0.05% Tween 20 and BSA; and • 5) Tris Buffer: 0.05 M Tris, 0.15 M NaCl, and 0.2% (w/v) polyethylene glycol 8000. • 2. Preparation of immunomagnetic beads (C1s recombinant antibody-coupled magnetic beads) • (1) 10 mg of magnetic beads (Merck carboxyl magnetic beads, with a particle size of 1 μm) were washed 3 times with 1 mL of Binding Buffer, and vortexed to mix evenly. • (2) 20 μg of the C1s recombinant antibody obtained in Example 1 was added into every 1 mg of the magnetic beads, mixed well, and vortexed at a room temperature (25° C.) for 15 min. • (3) 50 μg of a coupling agent was added into every 1 mg of the magnetic beads, mixed well, and vortexed at a room temperature for 1 h. • (4) 1 mL of Binding Buffer was added and vortexed at a room temperature for 3 h. • (5) The magnetic beads were washed 4 times with 0.5 mL of Washing Buffer. • (6) The magnetic beads were resuspended with 1 mL of Desired Buffer to obtain C1s recombinant antibody-coupled magnetic beads with a concentration of 5 mg/mL, and stored at 4° C. until later use. • 3. Detection of the enzymatic activity of activated C1s • (1) 60 μL of the C1s recombinant antibody-coupled magnetic beads were stirred evenly, subjected to magnetic suction to remove a supernatant, added with 200 μL of PBS to mix well, subjected to the magnetic suction to remove a supernatant, and washed repeatedly 2 times. • (2) 10 μL of a sample to be tested or activated C1s standards with different concentrations were diluted to 100 μL with PBS, and mixed vertically with the C1s recombinant antibody-coupled magnetic beads at a room temperature for 10 min. The magnetic suction was performed to discard a supernatant. According to the enzymatic activity of the C1s standard determined in Example 4, the enzymatic activity conversion of the C1s standards with different concentrations is shown in Table 2.
• (3) The magnetic beads were repeatedly washed 3 times with 100 μL of PBS. • (4) The magnetic beads were resuspended with 90 μL of Tris buffer. • (5) 10 μL of substrate peptide 3 was added at a concentration of 1 μg/mL. • (6) The detection was performed with a microplate reader at 360/40 excitation light wave and 460/40 emission light wave, with a best reaction time of 1 h as a detection point, and the fluorescence signals were measured and recorded. The straight line fitting was performed by taking a C1s enzymatic activity as an abscissa and a fluorescence signal as an ordinate with a double logarithmic Log-Log mathematical model and using a least square method to plot a standard curve.
The possibility that bilirubin, chyle, and hemoglobin in clinical samples cause interference in the experiment was taken into account. Referring to the interference check A kit, high-, medium-, and low-concentration standards were added with different concentrations of bilirubin (with final concentrations of 0 mg/mL, 0.06 mg/mL, 0.14 mg/mL, and 0.20 mg/mL, respectively), chyle (with final concentrations of 0 FTU, 600 FTU, 1,400 FTU, and 2,000 FTU, respectively), and a hemoglobin solution (with final concentrations of 0 mg/mL, 1.5 mg/mL, 3.5 mg/mL, and 5 mg/mL, respectively). The measured high, medium and low average concentrations containing different interfering substances were subtracted from the corresponding average concentrations without interfering substances, and a difference and a percentage of the difference in an average concentration of a blank control without interfering substances were calculated.

Hemoglobin: hemoglobin solution, interfering substance from interference check A kit
measured activated C1s enzymatic activity (High value standard, hemoglobin 1.5 mg/mL): 60.57 ± 3.66 pmol/min/µg
measured activated C1s enzymatic activity (High value standard, hemoglobin 3.5 mg/mL): 56.23 ± 4.58 pmol/min/µg
measured activated C1s enzymatic activity (High value standard, hemoglobin 5 mg/mL): 59.50 ± 5.13 pmol/min/µg
measured activated C1s enzymatic activity (Low value standard, hemoglobin 1.5 mg/mL): 6.00 ± 0.59 pmol/min/µg
measured activated C1s enzymatic activity (Low value standard, hemoglobin 3.5 mg/mL): 6.2 ± 0.56 pmol/min/µg
measured activated C1s enzymatic activity (Low value standard, hemoglobin 5 mg/mL): 6.37 ± 0.51 pmol/min/µg
measured activated C1s enzymatic activity (Medium value standard, hemoglobin 1.5 mg/mL): 29.47 ± 1.15 pmol/min/µg
measured activated C1s enzymatic activity (Medium value standard, hemoglobin 3.5 mg/mL): 28.16 ± 2.68 pmol/min/µg
measured activated C1s enzymatic activity (Medium value standard, hemoglobin 5 mg/mL): 28.23 ± 1.45 pmol/min/µg
interference with the detection method (hemoglobin 5 mg/mL): not interfered
